Assays:
AncSZ = experiment: phosphorylation enrichment, bacterial display (enrichment ratio); higher = better substrate or ligand; peptides without Tyr show the background
EPHB1 = EPHB1 (UniProt P54762); experiment: as above
EPHB2 = EPHB2 (UniProt P29323); experiment: as above
FGFR1 = FGFR1 (UniProt P11362); experiment: as above
FGFR3 = FGFR3 (UniProt P22607); experiment: as above
Fer (mouse) = experiment: as above
Fes = Fes (UniProt P07332); experiment: as above
Fyn = Fyn (UniProt P06241); experiment: as above
Hck = Hck (UniProt P08631); experiment: as above
Jak2 = Jak2 (UniProt O60674); experiment: as above
MERTK = MERTK (UniProt Q12866); experiment: as above
c-Abl (mouse) = experiment: as above
c-Src = experiment: as above
Grb2 SH2 = Grb2 SH2 (UniProt P62993); experiment: SH2 binding enrichment of the phosphorylated peptide, bacterial display (enrichment ratio); higher = better substrate or ligand; peptides without Tyr show the background
SHP2-C SH2 = experiment: as above
c-Src SH2 = experiment: as above
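For SH2 binding enrichment of the phosphorylated peptide, bacterial display in this document: peptide library displayed on the E. coli surface as eCPX fusions, selected cells deep-sequenced, score is each peptide's frequency after selection divided by its frequency in the input.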
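For phosphorylation enrichment, bacterial display in this document: 11-residue human phosphosite peptides and single-mutation variants displayed on the E. coli surface, counted by deep sequencing, each peptide's frequency after selection divided by its frequency in the unselected input library; frequency after pTyr selection over input frequency; kinase dosed for 20-30% of maximal phosphorylation in three min.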

EPHB2, sequence (P29323 whole entry, looked up): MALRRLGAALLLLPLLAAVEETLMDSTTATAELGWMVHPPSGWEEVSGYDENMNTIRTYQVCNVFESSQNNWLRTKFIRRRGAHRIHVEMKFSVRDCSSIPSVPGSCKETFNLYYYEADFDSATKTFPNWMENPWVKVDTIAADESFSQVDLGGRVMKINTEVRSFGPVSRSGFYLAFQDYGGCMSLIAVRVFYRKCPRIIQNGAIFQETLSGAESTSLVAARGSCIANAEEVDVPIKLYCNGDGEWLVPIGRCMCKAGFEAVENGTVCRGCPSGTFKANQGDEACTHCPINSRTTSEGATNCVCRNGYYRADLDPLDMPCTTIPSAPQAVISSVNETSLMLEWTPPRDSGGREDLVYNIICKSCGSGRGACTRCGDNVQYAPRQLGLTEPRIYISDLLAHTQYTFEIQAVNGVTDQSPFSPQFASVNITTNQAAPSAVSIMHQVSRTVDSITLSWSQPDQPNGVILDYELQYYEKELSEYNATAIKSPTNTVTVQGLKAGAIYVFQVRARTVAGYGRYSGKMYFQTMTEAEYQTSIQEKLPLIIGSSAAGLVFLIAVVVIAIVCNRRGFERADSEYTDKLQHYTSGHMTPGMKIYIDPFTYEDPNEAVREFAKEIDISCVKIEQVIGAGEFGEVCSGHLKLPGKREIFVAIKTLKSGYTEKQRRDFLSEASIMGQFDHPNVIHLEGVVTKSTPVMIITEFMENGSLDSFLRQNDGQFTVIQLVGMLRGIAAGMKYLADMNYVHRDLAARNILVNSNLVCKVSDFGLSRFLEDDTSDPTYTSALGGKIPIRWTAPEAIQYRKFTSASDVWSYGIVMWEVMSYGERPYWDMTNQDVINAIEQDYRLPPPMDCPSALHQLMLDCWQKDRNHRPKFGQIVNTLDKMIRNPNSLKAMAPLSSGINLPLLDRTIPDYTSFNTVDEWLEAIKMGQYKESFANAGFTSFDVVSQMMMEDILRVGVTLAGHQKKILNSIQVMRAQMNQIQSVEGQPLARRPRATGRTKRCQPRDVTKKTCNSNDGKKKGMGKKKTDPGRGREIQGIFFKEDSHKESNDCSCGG
Jak2, sequence (O60674 whole entry, looked up): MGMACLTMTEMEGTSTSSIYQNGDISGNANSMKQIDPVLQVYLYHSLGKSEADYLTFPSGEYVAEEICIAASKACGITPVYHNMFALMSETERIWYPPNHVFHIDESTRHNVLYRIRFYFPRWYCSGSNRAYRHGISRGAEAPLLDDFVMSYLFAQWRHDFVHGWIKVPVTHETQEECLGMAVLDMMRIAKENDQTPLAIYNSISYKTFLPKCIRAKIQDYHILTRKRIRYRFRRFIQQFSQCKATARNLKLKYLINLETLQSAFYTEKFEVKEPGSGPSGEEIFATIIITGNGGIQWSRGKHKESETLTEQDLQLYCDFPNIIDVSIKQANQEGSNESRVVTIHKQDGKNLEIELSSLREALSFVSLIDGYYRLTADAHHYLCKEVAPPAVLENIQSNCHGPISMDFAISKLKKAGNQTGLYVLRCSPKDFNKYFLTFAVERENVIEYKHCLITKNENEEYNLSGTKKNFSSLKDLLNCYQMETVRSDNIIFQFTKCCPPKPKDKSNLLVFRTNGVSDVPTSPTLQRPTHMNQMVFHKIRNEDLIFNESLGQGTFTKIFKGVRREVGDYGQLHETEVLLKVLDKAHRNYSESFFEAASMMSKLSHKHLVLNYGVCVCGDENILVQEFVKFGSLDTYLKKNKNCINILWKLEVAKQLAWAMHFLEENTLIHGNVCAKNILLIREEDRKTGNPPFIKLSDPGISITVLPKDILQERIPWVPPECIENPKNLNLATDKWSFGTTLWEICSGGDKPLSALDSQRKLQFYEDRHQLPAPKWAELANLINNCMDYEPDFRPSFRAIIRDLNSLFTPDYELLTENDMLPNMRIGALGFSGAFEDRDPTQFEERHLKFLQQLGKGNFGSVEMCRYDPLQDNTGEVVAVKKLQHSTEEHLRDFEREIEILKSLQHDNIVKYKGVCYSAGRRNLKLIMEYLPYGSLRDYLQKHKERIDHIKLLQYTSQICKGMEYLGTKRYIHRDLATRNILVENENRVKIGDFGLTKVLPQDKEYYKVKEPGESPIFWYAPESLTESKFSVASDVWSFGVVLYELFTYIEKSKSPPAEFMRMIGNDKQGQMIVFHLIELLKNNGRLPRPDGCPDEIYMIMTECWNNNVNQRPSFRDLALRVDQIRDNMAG
Fes, sequence (P07332 whole entry, looked up): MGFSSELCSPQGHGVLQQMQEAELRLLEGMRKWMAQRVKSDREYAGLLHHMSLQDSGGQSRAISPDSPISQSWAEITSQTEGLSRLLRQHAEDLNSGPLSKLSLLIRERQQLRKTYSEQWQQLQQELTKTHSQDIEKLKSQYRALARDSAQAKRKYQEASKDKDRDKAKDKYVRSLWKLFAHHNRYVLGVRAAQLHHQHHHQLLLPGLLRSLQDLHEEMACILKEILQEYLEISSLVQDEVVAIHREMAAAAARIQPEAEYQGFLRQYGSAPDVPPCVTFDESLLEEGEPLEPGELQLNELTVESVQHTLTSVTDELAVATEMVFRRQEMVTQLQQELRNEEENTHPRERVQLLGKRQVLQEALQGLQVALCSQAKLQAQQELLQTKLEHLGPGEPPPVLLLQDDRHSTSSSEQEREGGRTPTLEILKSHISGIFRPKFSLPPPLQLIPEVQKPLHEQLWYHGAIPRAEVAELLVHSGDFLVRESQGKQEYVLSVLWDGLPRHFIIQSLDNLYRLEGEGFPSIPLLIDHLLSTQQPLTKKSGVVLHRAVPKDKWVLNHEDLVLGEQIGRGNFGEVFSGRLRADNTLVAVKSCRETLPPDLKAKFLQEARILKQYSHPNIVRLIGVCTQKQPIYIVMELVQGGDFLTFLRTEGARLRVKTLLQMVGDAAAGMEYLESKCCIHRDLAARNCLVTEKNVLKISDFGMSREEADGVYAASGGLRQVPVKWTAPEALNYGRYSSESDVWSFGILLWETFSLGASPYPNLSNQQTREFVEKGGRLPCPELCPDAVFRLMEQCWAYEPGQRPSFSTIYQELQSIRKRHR
Fyn, sequence (P06241 whole entry, looked up): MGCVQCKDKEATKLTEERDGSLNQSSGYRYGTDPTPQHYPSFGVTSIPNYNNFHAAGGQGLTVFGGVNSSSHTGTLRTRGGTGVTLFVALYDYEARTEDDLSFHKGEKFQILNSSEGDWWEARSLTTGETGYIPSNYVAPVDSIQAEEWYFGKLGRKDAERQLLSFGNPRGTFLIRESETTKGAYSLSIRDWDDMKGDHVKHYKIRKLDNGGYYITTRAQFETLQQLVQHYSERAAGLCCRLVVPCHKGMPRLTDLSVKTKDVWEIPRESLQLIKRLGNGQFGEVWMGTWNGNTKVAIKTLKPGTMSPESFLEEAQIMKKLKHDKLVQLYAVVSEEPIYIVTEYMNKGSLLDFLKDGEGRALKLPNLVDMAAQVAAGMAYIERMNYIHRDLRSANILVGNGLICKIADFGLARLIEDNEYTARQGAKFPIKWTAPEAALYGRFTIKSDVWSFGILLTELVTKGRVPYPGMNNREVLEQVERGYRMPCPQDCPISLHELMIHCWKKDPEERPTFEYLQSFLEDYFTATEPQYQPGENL
Hck, sequence (P08631 whole entry, looked up): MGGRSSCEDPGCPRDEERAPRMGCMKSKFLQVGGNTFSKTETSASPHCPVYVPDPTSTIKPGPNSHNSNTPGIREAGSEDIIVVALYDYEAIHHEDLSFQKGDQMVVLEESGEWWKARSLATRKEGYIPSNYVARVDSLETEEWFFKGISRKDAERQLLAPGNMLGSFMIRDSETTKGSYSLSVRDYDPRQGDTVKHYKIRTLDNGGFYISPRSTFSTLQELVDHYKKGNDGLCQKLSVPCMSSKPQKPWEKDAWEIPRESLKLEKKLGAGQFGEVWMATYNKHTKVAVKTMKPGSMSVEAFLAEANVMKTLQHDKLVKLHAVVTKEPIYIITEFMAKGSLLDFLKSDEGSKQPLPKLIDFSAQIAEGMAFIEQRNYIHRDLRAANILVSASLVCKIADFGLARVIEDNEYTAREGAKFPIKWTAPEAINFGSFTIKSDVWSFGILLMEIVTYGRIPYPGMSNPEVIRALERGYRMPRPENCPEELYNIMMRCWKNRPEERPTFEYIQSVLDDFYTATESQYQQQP
FGFR1, sequence (P11362 whole entry, looked up): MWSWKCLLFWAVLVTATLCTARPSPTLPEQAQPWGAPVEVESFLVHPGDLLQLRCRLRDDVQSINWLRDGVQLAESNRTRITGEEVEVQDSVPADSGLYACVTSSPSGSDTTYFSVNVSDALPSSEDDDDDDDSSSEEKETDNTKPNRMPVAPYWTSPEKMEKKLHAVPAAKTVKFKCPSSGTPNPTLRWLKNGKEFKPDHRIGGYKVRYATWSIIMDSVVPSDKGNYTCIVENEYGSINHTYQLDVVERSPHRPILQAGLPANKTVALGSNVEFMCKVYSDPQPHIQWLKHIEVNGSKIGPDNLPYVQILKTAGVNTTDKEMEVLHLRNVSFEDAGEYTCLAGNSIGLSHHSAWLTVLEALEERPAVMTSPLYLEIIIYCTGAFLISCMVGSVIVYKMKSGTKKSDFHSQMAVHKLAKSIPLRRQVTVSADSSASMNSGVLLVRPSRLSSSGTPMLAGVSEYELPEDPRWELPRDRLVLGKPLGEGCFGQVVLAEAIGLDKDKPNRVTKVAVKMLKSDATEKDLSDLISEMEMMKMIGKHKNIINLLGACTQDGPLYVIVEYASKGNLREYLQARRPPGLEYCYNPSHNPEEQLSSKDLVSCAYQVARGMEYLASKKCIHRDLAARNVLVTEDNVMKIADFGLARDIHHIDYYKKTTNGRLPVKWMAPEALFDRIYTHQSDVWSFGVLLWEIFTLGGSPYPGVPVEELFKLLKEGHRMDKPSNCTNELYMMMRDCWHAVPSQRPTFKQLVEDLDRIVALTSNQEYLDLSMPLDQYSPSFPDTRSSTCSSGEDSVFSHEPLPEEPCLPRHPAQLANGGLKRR

Sequence	SH2 binding enrichment (Grb2 SH2)	SH2 binding enrichment (SHP2-C SH2)	SH2 binding enrichment (c-Src SH2)	phosphorylation enrichment (AncSZ)	phosphorylation enrichment (EPHB1)	phosphorylation enrichment (EPHB2)	phosphorylation enrichment (FGFR1)	phosphorylation enrichment (FGFR3)	phosphorylation enrichment (Fer (mouse))	phosphorylation enrichment (Fes)	phosphorylation enrichment (Fyn)	phosphorylation enrichment (Hck)	phosphorylation enrichment (Jak2)	phosphorylation enrichment (MERTK)	phosphorylation enrichment (c-Abl (mouse))	phosphorylation enrichment (c-Src)
EQMASYFGHSV [ITGA2B_Y319]	0.758	0.596	0.491	0.662	0.44	0.488	0.576	0.59	0.584	0.663	0.549	0.452	0.842	0.425	0.573	0.553
ERDYTYEELLN [EIF2S2_Y176]	0.823	0.737	1.1	1.31	0.78	0.718	0.579	0.855	0.65	1.28	0.886	1.32	1.18	0.426	0.67	0.807
ETDPRYFDEEF [AKT1_Y437_T435P]	0.946	0.501	0.507	1.36	0.625	0.604	0.548	0.787	0.6	1.31	0.565	0.611	1.29	0.483	0.886	0.563
ETDSEYVKLSK [C7orf57_Y70_A74S]	1.1	0.588	0.753	1.01	0.524	0.63	0.516	0.667	0.499	1.13	0.533	0.604	1.01	0.435	0.695	0.451
ETRWNYHFEVV [GCNT3_Y267_K266N]	0.761	0.646	0.592	1.38	0.971	0.496	0.563	0.893	0.568	1.65	0.449	0.439	1.23	0.398	0.904	0.433
EVDETYVPKKF [ALB_Y521_E525K]	1.06	0.775	0.613	0.947	0.685	0.372	0.385	0.518	0.371	0.952	0.454	0.446	1.01	0.404	0.607	0.408
EYFDGYWEYSV [ITGA2B_Y265_G267E]	0.876	0.758	0.465	4.06	2.02	3.58	13.8	12	1.22	1.72	5.41	4.33	5.73	2	1.54	6.02
FAASSYSFSDL [EMD_Y59_S54F]	0.864	0.631	0.825	0.813	0.643	0.517	0.548	0.663	0.547	1.15	0.558	0.64	0.849	0.78	0.707	0.639
FADGVYLALEE [DUOX2_Y70_Q71L_YF]	0.849	0.623	0.558	1.63	1.19	0.991	0.881	1.02	0.584	1.04	2.15	1.51	0.968	0.641	0.647	2.47
FAKTQYPDIFA [CRX_Y63_V66I_YF]	0.849	0.529	0.456	0.667	0.426	0.373	0.378	0.528	0.517	0.922	0.434	0.387	0.483	0.489	0.542	0.415
FASALYGQRRS [FGF11_Y162_R163G_YF]	0.659	0.457	0.511	0.724	0.343	0.415	0.364	0.442	0.505	0.682	0.444	0.903	0.616	0.516	0.47	0.641
FDAHIYEGRVI [PRKCD_Y64]	0.913	0.654	0.713	0.929	0.544	0.609	0.546	0.574	2.12	0.91	1.68	4.25	0.639	0.47	0.636	2.08
FEEDSYSHIMA [FDPS_Y388_YF]	0.718	0.479	0.864	1.33	0.551	0.593	1.01	1.01	1.07	1.23	0.634	0.972	1.06	0.458	0.671	0.721
FEEDSYSHVMA [FDPS_Y388_I391V_YF]	0.983	0.724	0.584	1.57	0.696	0.482	0.934	0.901	1.42	1.3	0.511	0.646	1.14	0.631	0.731	0.779
FEELVYETVRV [FSHB_Y76_K72E]	0.884	0.702	0.514	3.82	4.38	5.12	2.21	1.82	12.8	6.25	7.8	6.88	0.843	4.67	11.5	5.16
FEHVGYTTLNR [CHN1_Y148_YF]	0.917	18.8	5.21	0.654	0.393	0.395	0.426	0.458	0.445	0.805	0.448	0.602	0.527	0.406	0.68	0.466
FEKFLYFLPAS [DYNC2H1_Y346_H341Y_YF]	0.84	0.759	0.544	1.5	0.8	0.735	0.474	0.852	0.55	1.48	0.733	0.884	2.67	1.95	0.896	0.76
FFIMMYTGSNV [DNAJC13_Y1131]	0.9	0.732	0.508	1.3	0.681	0.664	0.619	0.782	0.589	1.29	0.433	0.505	1.06	0.477	0.779	0.4
FFIMMYTGSSV [DNAJC13_Y1131_N1135S]	0.703	0.851	0.455	0.97	0.62	0.468	0.366	0.533	0.456	1.07	0.316	0.438	0.824	0.325	0.743	0.342
FFRDGYMPRQF [GSS_Y270_YF]	1.02	0.784	0.509	0.634	0.415	0.4	0.597	0.55	0.407	0.82	0.393	0.455	0.592	0.493	0.482	0.345

The next lines start with results.

SH2 binding enrichment (Grb2 SH2)	SH2 binding enrichment (SHP2-C SH2)	SH2 binding enrichment (c-Src SH2)	Sequence	phosphorylation enrichment (AncSZ)	phosphorylation enrichment (EPHB1)	phosphorylation enrichment (EPHB2)	phosphorylation enrichment (FGFR1)	phosphorylation enrichment (FGFR3)	phosphorylation enrichment (Fer (mouse))	phosphorylation enrichment (Fes)	phosphorylation enrichment (Fyn)	phosphorylation enrichment (Hck)	phosphorylation enrichment (Jak2)	phosphorylation enrichment (MERTK)	phosphorylation enrichment (c-Abl (mouse))	phosphorylation enrichment (c-Src)
0.772	0.758	0.86	EQKRFYNAMKK [SCN5A_Y1495_K1493R_YF]	0.69	0.562	0.309	0.369	0.415	0.35	0.711	0.363	0.342	0.562	0.387	0.698	0.441
0.824	0.534	0.648	ESMQSYDLDFP [UNC13B_Y243_D238E_YF]	0.909	0.459	0.5	0.568	0.63	0.506	1.04	0.51	0.46	0.777	0.441	0.538	0.49
0.635	0.543	0.61	ETESPYQELQG [TYROBP_Y91]	1.24	0.624	0.646	0.91	0.834	0.673	1.39	0.775	0.9	1.3	0.669	0.83	1.52
0.749	0.458	0.356	ETLLFYGFRRS [POR_Y564_C566Y_YF]	0.871	0.504	0.404	0.58	0.535	0.405	1.01	0.431	0.544	0.745	0.631	0.542	0.514
0.805	0.662	0.592	EVQKDYEHLFK [PAM16_Y77_N76D]	0.885	0.511	0.525	0.498	0.582	0.421	0.804	0.478	0.514	0.71	0.462	0.62	0.491
0.802	0.767	0.488	EVVGRYSLHNA [MLH1_Y183_V185L]	0.478	0.421	0.368	0.502	0.424	0.33	0.671	0.382	0.411	0.445	0.405	0.371	0.364
0.881	0.799	0.677	EWQQTYTFDSG [JUP_Y20_YF]	1.06	0.494	0.485	0.965	1.02	0.425	0.904	3.03	0.78	1.02	0.668	0.546	5.44
0.96	0.718	1.86	EYHRLYEEYTR [PIK3R1_Y467_D464H]	1.45	3.87	5.18	2.52	1.61	2.31	0.898	5.5	5.42	0.978	2.48	0.653	4.19
0.723	0.973	0.421	FADTAYNYRHG [PAH_Y166_I164T]	0.672	0.533	0.362	0.899	0.601	0.552	0.831	0.456	0.514	0.509	0.35	0.46	0.449
0.793	0.633	0.513	FDRREYSRFEK [ITGB7_Y758_YF]	0.602	0.415	0.519	0.452	0.526	0.392	0.666	0.331	0.454	0.577	0.47	0.596	0.411
0.992	0.618	0.512	FEEDSYVERSQ [RET_Y905_K907E_YF]	1.18	0.67	0.621	0.508	0.731	0.575	1.26	0.504	0.457	1.08	0.415	0.866	0.526
0.859	0.694	0.539	FEREQYADRTR [RBM4_Y355_A359T_YF]	0.625	0.398	0.478	0.46	0.429	0.436	0.622	0.412	0.459	0.582	0.426	0.588	0.419
0.687	3.8	0.54	FFDANCDGKEF [MAPRE2_Y162_Y162C_YF]	1.26	0.573	0.62	0.455	0.662	0.521	1.27	0.973	0.58	1.11	0.472	1.09	0.537

Reference: the supplement of paper PMC10065799, “High-throughput profiling of sequence recognition by tyrosine kinases and SH2 domains using bacterial peptide display” (eLife, 2023)
